{"source": "patent US20070207967A1", "about": "“Peptide Inhibitors of Matrix Metalloproteinase Activity” (CTT CANCER TARGETING TECHNOLOGIES OY, priority 2004, published 2007)", "molecules": {"B1": {"name": "CBD: recombinant collagen binding domain of MMP-9 (Gly204-Gly373) (protein)", "chain": "GNADGAACHFPFIFEGRSYSACTTDGRSDGLPWCSTTANYDTDDRFGFCPSERLYTQDGNADGKPCQFPFIFQGQSYSACTTDGRSDGYRWCATTANYDRDKLFGFCPTRADSTVMGGNSAGELCVFPFTFLGKEYSTCTSEGRGDGRLWCATTSNFDSDKKWGFCPDQG"}, "B2": {"name": "β5 I-EGF2+3: integrin β5 I-EGF2+3 fragment (Glu476-Asn563) with N-terminal His6-tag (protein)", "chain": "ECQDGENQSVYQNLCREAEGKPLCSGRGDCSCNQCSCFESEFGKIYGPFCECDNFSCARNKGVLCSGHGECHCGECKCHAGYIGDNCN", "modifications": "left off: small tags and cut ends", "notes": "integrin β5 I-EGF2+3 fragment (Glu476-Asn563) with N-terminal His6-tag"}, "B3": {"name": "MMP-2 C domain: recombinant C-terminal domain of MMP-2 (Glu438-Cys631) (protein)", "chain": "EICKQDIVFDGIAQIRGEIFFFKDRFIWRTVTPRDKPMGPLLVATFWPELPEKIDAVYEAPQEEKAVFFAGNEYWIYSASTLERGYPKPLTSLGLPPDVQRVDAAFNWSKNKKTYIFAGDKFWRYNEVKKKMDPGFPKLIADAWNAIPDNLDAVVDLQGGGHSYFFKGAYYLKLENQSLKSVKFGSIKSDWLGC"}, "B4": {"name": "pro-MMP-9-ΔHC: pro-MMP-9 lacking the hinge region and the C domain (protein)", "chain": "APRQRQSTLVLFPGDLRTNLTDRQLAEEYLYRYGYTRVAEMRGESKSLGPALLLLQKQLSLPETGELDSATLKAMRTPRCGVPDLGRFQTFEGDLKWHHHNITYWIQNYSEDLPRAVIDDAFARAFALWSAVTPLTFTRVYSRDADIVIQFGVAEHGDGYPFDGKDGLLAHAFPPGPGIQGDAHFDDDELWSLGKGVVVPTRFGNADGAACHFPFIFEGRSYSACTTDGRSDGLPWCSTTANYDTDDRFGFCPSERLYTQDGNADGKPCQFPFIFQGQSYSACTTDGRSDGYRWCATTANYDRDKLFGFCPTRADSTVMGGNSAGELCVFPFTFLGKEYSTCTSEGRGDGRLWCATTSNFDSDKKWGFCPDQGYSLFLVAAHEFGHALGLDHSSVPEALMYPMYRFTEGPPLHKDDVNGIRHLYG"}, "B5": {"name": "MMP-9 C domain: recombinant C-terminal hemopexin-like domain of MMP-9 (Asp494-Asp688) (protein)", "chain": "DDACNVNIFDAIAEIGNQLYLFKDGKYWRFSEGRGSRPQGPFLIADKWPALPRKLDSVFEERLSKKLFFFSGRQVWVYTGASVLGPRRLDKLGLGADVAQVTGALRSGRGKMLLFSGRRLWRFDVKAQMVDPRSASEVDRMFPGVPLDTHDVFQYREKAYFCQDRFYWRVSSRSELNQVDQVGYVTYDILQCPED"}}, "key": {"[1]": {"tested_on": "THP-1 cells", "test": "THP-1 cell binding to immobilized KIM127 antibody", "assay_type": "cell-based, human", "procedure": "(§1) Cell adhesion. HT1080 cells were allowed to adhere on vitronectin or fibronectin (2 μg/ml) in the presence or absence of peptides (200 μM), proteins (40 μg/ml) or a monoclonal anti-αvβ5 integrin antibody P1F6 (Chemicon) or a control antibody (25 μg/ml). The adhesion was quantified as described (14). Adhesion of THP-1 cells to immobilized KIM127 or control monoclonal antibodies (2 μg/ml) was done in the presence or absence of soluble proteins (50 μg/ml) or antibodies (25 μg/ml)."}, "[2]": {"tested_on": "MMP-9 CBD, vitronectin, β5 I-EGF2+3, C domain of MMP-2", "test": "β5 I-EGF2+3 binding assay, other immobilized proteins", "procedure": "(§2) B5 I-EGF2+3 binding assay. MMP-9 C domain, MMP-2 C domain, CBD, β5 I-EGF2+3 or vitronectin (2 μg/ml) were immobilized in microtiter wells. Biotinylated β5 I-EGF2+3 fragment (2.5 μg/ml) was added to the wells which were preincubated with the competitors for 30 min in 1% BSA-PBST and then incubated further for one hour. Bound biotinylated protein was detected with streptavidin-peroxidase."}, "[3]": {"tested_on": "HT1080 fibrosarcoma", "test": "HT1080 invasion through matrigel", "assay_type": "cell-based, human", "details": "50 μg/ml", "procedure": "Cell migration and invasion. The cell migration assay was conducted using transwell migration chambers (8 μm pore size, Costar) in 10% serum-containing medium (2,14). Briefly, the membranes were coated on both sides with 40 μg/ml GST or with the β2 integrin ligand peptide […]-GST fusion (GST-LLG-C4) and blocked with complete medium. THP-1 cells (50 000/100 μl) were preincubated with the peptides for 1 h in serum-containing medium. The cells were allowed to migrate for 16 h and were then stained with crystal violet and counted (14). The HT1080 (20 000 cells/I100 μl) invasion assay was performed as the THP-1 migration, except that matrigel coated transwells (BD Biosciences) were used."}, "[4]": {"target": "T1, MMP-9 C domain (Homo sapiens, UniProt P14780)", "T1 construct": "MMP-9 (Asp^494-Asp^688) were expressed as described (16); made in house; host or cells: E. coli (β5 fragment)", "T1 sequence (P14780 513-707 limits assumed)": "B5 chain", "test": "β5 I-EGF2+3 binding assay, MMP-9 C domain", "procedure": "as §2"}, "[5]": {"tested_on": "β5 integrin-transfected CS-1 melanoma cells", "test": "125I-C domain binding to cells", "assay_type": "cell-based, hamster", "details": "for Competition of 125I-labelled MMP-9 C domain binding to β5 integrin-transfected CS-1 cells: unlabelled proteins 50 μg/ml, peptides 50 μM", "procedure": "^125I-C domain binding to cells. The MMP-9 C domain was labelled with ^125I to a specific activity 0.06 μCi/pmol. The labelled domain retained 40% of the CRV peptide-binding activity as shown by the phage-binding assay. […] After a preincubation of 1.5×10^6 cells in a 200 μl volume on ice for 30 min with the competitors, ^125I-labelled C domain (1×10^6 cpm) was added and incubated for three hours on ice. The cells were transferred to tubes containing 200 μl of dibutyl phthalate/cyclohexane mixture (23:2 vol/vol), centrifuged 7500×g for 10 minutes and snap-frozen (24). The bottom of the tube containing the cells were cut and analyzed with a gamma-counter."}, "[6]": {"tested_on": "HT1080 cells", "test": "HT1080 cell adhesion to vitronectin or fibronectin", "assay_type": "cell-based, human", "details": "proteins 40 μg/ml, CRV peptide 200 μM", "procedure": "as §1"}, "[7]": {"tested_on": "THP-1 cells", "test": "THP-1 cell binding to antibody R3F9C", "assay_type": "cell-based, human", "details": "not shown", "procedure": "as §1"}}}
{"molecule": "B1", "values": [{"measurement": "Effect on THP-1 cell binding to immobilized KIM127", "setting": "[1]; proteins 50 μg/ml, antibodies 25 μg/ml", "value": "did not"}]}
{"molecule": "B2", "values": [{"measurement": "Binding of β5 I-EGF2+3 to MMP-9 CBD, vitronectin, itself or the C domain of MMP-2", "setting": "[2]", "value": "did not bind"}, {"measurement": "Inhibition of HT1080 invasion through matrigel by integrin and MMP domains", "setting": "[3]", "value": "inhibited HT1080 invasion with a similar potency"}, {"measurement": "Competition of biotinylated β5 I-EGF2+3 binding to the MMP-9 C domain", "setting": "[4]", "value": "inhibited"}, {"measurement": "Binding of biotinylated β5 I-EGF2+3 to the MMP-9 C domain", "setting": "[4]; 2.5 μg/ml", "value": "specifically bound"}, {"measurement": "Competition of 125I-labelled MMP-9 C domain binding to β5 integrin-transfected CS-1 cells", "setting": "[5]", "value": "competed"}]}
{"molecule": "B3", "values": [{"measurement": "Inhibition of HT1080 invasion through matrigel by integrin and MMP domains", "setting": "[3]", "value": "inhibited HT1080 invasion with a similar potency"}, {"measurement": "Competition of 125I-labelled MMP-9 C domain binding to β5 integrin-transfected CS-1 cells", "setting": "[5]", "value": "No competition"}]}
{"molecule": "B4", "values": [{"measurement": "Inhibition of HT1080 cell adhesion to vitronectin or fibronectin", "setting": "[6]", "value": "Neither"}]}
{"molecule": "B5", "values": [{"measurement": "Inhibition of HT1080 invasion through matrigel by integrin and MMP domains", "setting": "[3]", "value": "inhibited HT1080 invasion with a similar potency"}, {"measurement": "Inhibition of THP-1 cell binding to KIM127", "setting": "[1]; 50 μg/ml", "value": 40, "unit": "%"}, {"measurement": "Binding of 125Iodine-labelled MMP-9 C domain to β5 integrin-transfected CS-1 cells", "setting": "[5]; not to the untransfected cells", "value": "specific binding"}, {"measurement": "Competition of 125I-labelled MMP-9 C domain binding to β5 integrin-transfected CS-1 cells", "setting": "[5]", "value": "competed"}, {"measurement": "Inhibition of HT1080 cell adhesion to vitronectin or fibronectin", "setting": "[6]", "value": "Neither"}, {"measurement": "Effect on THP-1 binding to R3F9C", "setting": "[7]", "value": "no effect"}]}
